Earlier results on 5 molecules are cited in publication PMC4723247, “Novel α-L-Fucosidases from a Soil Metagenome for Production of Fucosylated Human Milk Oligosaccharides” (PLoS ONE, 2016).

Like-named read-outs stand apart in the source and are kept apart here.

Details of this data set: method as in earlier work. As to conditions: S2 Table, wrapped lists given only as far as the first printed line, ref http://www.cazy.org/GH29_characterized.html and S2 Table refs 1-18.

B1: FUCA1: α-L-fucosidase from Canis lupus familiaris (Uniprot P48300) (protein, UniProt P48300 27-465, looked up)
Tissue alpha-L-fucosidase: LVRAAAPPRRYTPDWQSLDSRPLPDWFDKAKFGVFVHWGEFAVPAWGSEWFWWHWKGEGLPQYEQFMSENYPPGFSYADFGPQFTARFFHPDTWADLFQAAGARYVVLTTKHHEGFTNWPSSVSWNWNSNDVGPHRDLVGELGRALRKRNIRYGLYHSLLEWFHPLYLLDKKNNFKTQFFVRAKTMPELYDLVNRYEPDLIWSDGEWKCPDTYWNSTEFLSWLYNDSPVKDHVVVNDRWGQNCSCHHGGYYNCQDKYKPESLPDLKWEMCTSIDKVSWGYRRNMVMSDVASECEIISELVQTVSLGGNYLLNIGPTKDGLIVPIFQERLLSIGKWLSINGEAIYASKPWRVQLEKNTTSVWYTSRGMTVYAIFLRWPENGVLSLKSPVTTSTTQITMLGIQKDLKWSTEPEGLLIYLPQLSLFTLPVEFGWTIKLTGVE
Take B1: the Reported substrates hydrolyzed is given as 4- methylumbelliferyl- α- L-fucopyrano side and the “Reported substrates not hydrolyzed” value was 4- methylumbellife ryl β-fucopyranos i de. The Reported substrates hydrolyzed (listed as FucA1) is 4- methylumbellife ryl α- L-fucopyranoside, pNP-F uc, 2’ -FL.

B2: FucA1;FucA: α-L-fucosidase FucA1 from Rattus norvegicus (Uniprot P17164) (protein, UniProt P17164 29-462, looked up)
Tissue alpha-L-fucosidase: APHHYTPDWPSLDSRPLPRWFDEAKFGLFVHWGVYSVPAWGSEWFWWHWQGEQSSAYVRFMKENYPPGFSYADFAPQFTARFFHPEEWADLFQAAGAKYVVLTAKHHEGFTNWPSAVSWNWNSKDVGPHRDLVGELGAAVRKRNIRYGLYHSLFEWFHPLYLLDKKNGLKTQHFVSTKTMPELYDLVNRYKPDLIWSDGEWECPDSYWNSTEFLAWLYNESPVKDQVVVNDRWGQNCSCRHGGYYNCEDKYRPHSLPDHKWEMCTSVDKASWGYRRDMSMSTIVDENEIIEELVQTISLGGNYLLNIGPNKDGVIVPIFQERLLAVGKWLQINGEAIYASKPWRVQSERNKTVVWYTTKDSAVYATFLHWPEDGVVNLQSPKMTSATKITMLGMEGELHWTQDPLEGVLITLPQLPPGTFPVESAWTLKLTKVN
On to B2, for which the Reported substrates hydrolyzed entry was “Hydrolyzes pNP-Fuc, α1-2, α1-3, and α1-4 fucosyl linkages”; the “Reported substrates not hydrolyzed” value was “Fucα1- 2GlcNAcβ-p NP”.

B3: AtFUC1;At2g28100: α-1,3/4-L-fucosidase 1 from Arabidopsis thaliana (Uniprot Q8GW72) (protein, UniProt Q8GW72 24-506, looked up)
Alpha-L-fucosidase 1: SSLLKPHPCPILPLPSSQQLQWQLGSMAMFLHFGPNTFTDSEWGTGKANPSIFNPTHLNASQWVQIAKDSGFSRVILTAKHHDGFCLWPSEYTDYSVKSSQWRNGAGDVVAELASAAKEAGIGLGLYLSPWDRHEQCYGKTLEYNEFYLSQMTELLTKYGEIKEVWLDGAKGDGEKDMEYFFDTWFSLIHQLQPKAVIFSDAGPDVRWIGDEAGLAGSTCWSLFNRTNAKIGDTEPSYSQEGDGYGQDWVPAECDVSIRPGWFWHASESPKPAVQLLDIYYNSVGRNCLFLLNVPPNSSGLISEQDIKVLEEFSEMKNSIFSNNLARKAFVNSSSIRGDQSSQFGPKNVLEEGLDKYWAPEENQNEWVLYLEFKDLVSFNVLEIREPIHMGQRIASFHLETRKTGSGEWERVVSGTTVGNKRLLRFLNVVESRSLKLVVDKARTDPLISYLGLYMDKFSGSSRNTTKITITRTLKEEQQLHDL
Regarding B3, the Reported substrates hydrolyzed is recorded as 2-aminobenzamide labeled LNFP II, 3FL, fucose linked α1-4 and the “Reported substrates not hydrolyzed” value is listed as 2-aminobenzamide labeled 2’-FL, pNP-Fuc.

B4: FucA2;Mgc1314;dJ20N2.5: α-L-fucosidase FucA2 from Homo sapiens (Uniprot Q7Z6V2) (protein, UniProt Q9BTY2 29-467, looked up)
Plasma alpha-L-fucosidase: HSATRFDPTWESLDARQLPAWFDQAKFGIFIHWGVFSVPSFGSEWFWWYWQKEKIPKYVEFMKDNYPPSFKYEDFGPLFTAKFFNANQWADIFQASGAKYIVLTSKHHEGFTLWGSEYSWNWNAIDEGPKRDIVKELEVAIRNRTDLRFGLYYSLFEWFHPLFLEDESSSFHKRQFPVSKTLPELYELVNNYQPEVLWSDGDGGAPDQYWNSTGFLAWLYNESPVRGTVVTNDRWGAGSICKHGGFYTCSDRYNPGHLLPHKWENCMTIDKLSWGYRREAGISDYLTIEELVKQLVETVSCGGNLLMNIGPTLDGTISVVFEERLRQMGSWLKVNGEAIYETHTWRSQNDTVTPDVWYTSKPKEKLVYAIFLKWPTSGQLFLGHPKAILGATEVKLLGHGQPLNWISLEQNGIMVELPQLTIHQMPCKWGWALALTNVI
Consider B4, for which the Reported substrates hydrolyzed entry was “Hydrolyzes pNP-Fuc, prefers α1-2 but capable of cleaving”.

B5: AlfA: α-L-fucosidase from Dictyostelium discoideum (Uniprot P10901) (protein, UniProt P10901 19-461, looked up)
Alpha-L-fucosidase: QQYGPTWDQINSRPLPGWYDDVKFGIFIHFGIYSVPAFANGGYAEWYWWTLKNPSSDGGATQRYHEKEFGANFTYQDFVSRFDCRLFDANEWASIIEKSGAKYVVLTSKHHEGYTLWNSEQSWNWNSVETGPGIDIVGELTKSVKNMGLHMGLYHSLFEWFNPLYLADAETGKNPTTQVYVDEILMKQLKDIVTTYEPELIWADGDWMQLSNYWKSTEFLSWLYTNSSVKDTVIVNDRWGSECRDKNGGFYTGADHFNPYKLQSHKWENCATIGYSYGYDEYEQATDYQNATELIIDLVTTVACGGNFLLDVGPDAQGTIPNNMVDRLLEIGNWLSINSESIYGSSPWRVQNMTFNIWYTTNTTNGNVYAFVFELPDDGVLILSDPIGNNKTEATLLGLKGEKGVEVSLPIESTKPGITLNIPMVAPQDYPPYVYVFRLTDVE
On to B5, for which the Reported substrates hydrolyzed is reported as 6- O-alpha-L-fucopyranosyl- N-acetylglucosaminitol and the “Reported substrates not hydrolyzed” value is on record as “Lacto-N-fucopentaitol II”.
